Earlier results on four substances are cited in patent publication US20250009916A1, “COMBINATION THERAPY FOR TREATING LUNG CANCER” (Novartis AG, priority 2021, published 2025).

In series [1] the test system is ES-SCLC. The following applies: ES-SCLC patients, first-line, IMPower133; cited from earlier work.
A further series concerns SCLC. Conditions: cited from earlier work.
The test system of the next series is advanced solid tumors. The following applies: cited from earlier work.
The conditions of series [2]: cited from earlier work.
The conditions of series [3]: cited from earlier work. The source holds these as a separate data set.
The conditions of series [4]: in vivo; cited from earlier work.
The conditions of series [5]: 100 mCi dose; patients pretreated, with risk factors or abnormal renal and bone marrow function; cited from earlier work.
In a further series the test system is GEP-NET. Conditions: cited from earlier work.
In series [6] the test system is ES-SCLC. The following applies: ES-SCLC patients, durvalumab arm, CASPIAN; cited from earlier work.
Setting [7] is: 17 SCLC patients, plus cisplatin/carboplatin and etoposide Q3W.
The mark [8] stands for this setting: 200-mg fixed dose cohort, evaluable n=13.
[9] abbreviates: 4 doses of 7.4 GBq/200 mCi every 8 weeks, GEP-NET patients.

Like-named read-outs stand apart in the source and are kept apart here.

Take “atezolizumab: immune checkpoint inhibitor antibody (Roche)”: the PFS with ES-SCLC [1] was 5.2 months.
Take “tislelizumab: anti-PD-1 monoclonal antibody (Beigene), heavy chain SEQ ID NO: 1, light chain SEQ ID NO: 5”: in the series with SCLC (setting [7]), the ORR is 77%, the “median OS” value is listed as 15.6 months and the “median PFS” value is reported as 6.9 months. For the same substance, the antitumor activity entry in the series on SCLC (tislelizumab 200 mg with platinum-based chemotherapy, including SCLC group) is “Encouraging antitumor activity”. The tolerability result in the series on SCLC (tislelizumab 200 mg with platinum-based chemotherapy) is given as “generally well tolerated”. Besides, the “safety signals in combination with standard-of-care chemotherapies” value in the series with advanced solid tumors (first-line lung cancer) is “did not lead to new safety signals”. Moreover, in the series on advanced solid tumors (monotherapy or combined with platinum-based chemotherapy), the safety profile result is reported as “manageable safety profile”. Moreover, in [2] (2 mg/kg and 5 mg/kg, once every 2 weeks and once every 3 weeks), the “rates of treatment-related adverse events and serious adverse events across regimens” value is recorded as “comparable”. In addition, the “treatment-related adverse events versus body-weight-based cohorts” value in [2] (200-mg fixed dose cohort, Phase Ia Part 3) was “no unexpected treatment-related adverse events”. In series [2] (setting [8]), the “patients with BOR of partial response (PR)” value is reported as 23%, the “patients with BOR of progressive disease (PD)” value is 46% and the “patients with BOR of stable disease” value is listed as 31%. The serum exposure result in series [3] (200-mg dose) is “fell between serum exposure observed after 2 mg/kg and 5 mg/kg doses”. Also, the CL result in series [3] (Phase Ia) is “independent of body weight, ethnicity, and gender”.
Take “Lutetium (^177Lu) oxodotreotide [[^177Lu] Lu-DOTA-TATE]”: in series [4], the elimination route entry is recorded as “mainly via the renal route”, the “interaction with drug transporters” value is “does not interact with drug transporters” and the metabolization result was “very low (if any)”. In series [5], the tolerability entry is reported as “favorable tolerability”. In the series on GEP-NET (setting [9]), the “progression free survival and quality of life with approved regimen” value is “significant improvement of progression free survival (PFS) and quality of life”; the “safety of approved regimen” value is recorded as “safe”. The median overall survival in the series on GEP-NET (GEP-NET patients, phase 3 NETTER-1) is reported as 48 months. Further, in the series on GEP-NET (literature), the “safety of additional doses exceeding 800 mCi cumulative dose” value is “without additional safety signals”.
Take durvalumab: PD-L1 inhibitor: in the series with ES-SCLC [6], the PFS is 5.1 months.
